Source: patent US20240279345A1, “ALPHA 5 BETA 1 INTEGRIN BINDING AGENTS AND USES THEREOF” (PASITHEA THERAPEUTICS CORP., priority 2021, published 2024)

Legend:
[1] = target: T1, recombinant human α5β1 integrin (human, UniProt P08648 42-995; P05556 21-728); assay: ELISA, coated integrin, supernatant 1:10
T1 construct: also called rh-α5β1
Description: (§1) Plates were washed 3 times with Wash Buffer (1× Tris Buffered Saline containing 0.05% Tween20), blocked with 2% BSA in 1×TBS (made from 10× Thermo Scientific Blocker BSA (10×) in TBS; Thermo Fisher Scientific, Waltham, MA, cat. no. 37520) for 2 hours at room temperature (RT) then incubated with hybridoma supernatants diluted 1:10 with Standard Diluent (2% BSA, 1×TBS, 0.05% Tween20). […] Absorbance 450 nm was measured.

[2] = target: T2, recombinant mouse α5β1 integrin (mouse, UniProt P11688 45-999; P09055 21-728); assay: ELISA, coated integrin, supernatant 1:10
T2 construct: bought recombinant heterodimer (R&D Systems cat. 7728-A5) coated on the plate; also called rm-α5β1
Description: as §1

[3] = target: T3, recombinant human α4β1 integrin (human, UniProt P13612 34-977; P05556 21-728); assay: ELISA, coated integrin, supernatant 1:10
T3 construct: bought recombinant heterodimer (R&D Systems cat. 5668-A4) coated on the plate; also called rh-α4β1
Description: as §1

[4] = target: T4, recombinant human α5β1 integrin (rh-α5β1) (Homo sapiens, UniProt P05556+P08648); assay: Plate-based ELISA reactivity to rh-α5β1; assay type: binding; conditions: selected for further characterization among α5 specific hybridomas (28 selected)
T4 construct: purchased R&D Systems 3230-A5
Description: The 249 positive hybridoma supernatants selected as described in Example 1 were screened for reactivity to rh-α5β1 in a plate-based ELISA. Immulon4 HBX ELISA 96-well plates (Thermo Fisher Scientific, Waltham, MA, cat. no. 3855) were coated with rh-α5β1 (R&D Systems, Minneapolis, MN 55413, cat. no. 3230-A5), at 1 μg/mL in PBS supplemented with 0.5 mM MgCl2, MnCl2 and CaCl2 and incubated overnight at 4° C. Plates were washed 3 times with Wash Buffer (1× Tris Buffered Saline containing 0.05% Tween20), blocked with 2% BSA in 1×TBS (made from 10× Thermo Scientific Blocker BSA (10×) in TBS; Thermo Fisher Scientific, Waltham, MA, cat. no. 37520) for 2 hours at room temperature (RT) then incubated with hybridoma supernatants diluted 1:10 with Standard Diluent (2% BSA, 1×TBS, 0.05% Tween20). Following a 1 hour incubation at RT, wells were washed 3 times, incubated with biotinylated goat anti-mouse secondary antibody at 1:8000 dilution (Invitrogen, Carlsbad, CA, cat. no. 62-6540) for 1 hour, washed 3 times, then incubated for 30 minutes with poly-HRP Streptavidin (Thermo Fisher Scientific, Waltham, MA, cat. no. N200), washed 4 times, incubated with TMB (Thermo Fisher Scientific, Waltham, MA, cat. no. N301) for 5-10 minutes, followed by addition of ELISA Stop Solution (Invitrogen, Carlsbad, CA, cat. no. SS04). Absorbance 450 nm was measured.

[5] = target: rh-α5β1 (Homo sapiens, UniProt P05556+P08648); assay: Competition binding studies by Biolayer Interferometry (epitope groups); conditions: for Response (nm) / % Response: secondary mAb pre-mixed with 20 nM rh-α5β1; for % Response: relative to antigen alone; for epitope group: two epitope groups among 6 antibodies
Description: Epitope analysis via competition binding studies was performed using Biolayer Interferometry (BLI) on the 6 antibodies selected as described in Example 5. The anti-α5β1 FN blocking antibodies A2-7A05, C-14D12 and A-15B08 were immobilized on sensors and incubated with each of the other antibodies that had been preincubated with rh-α5β1, to determine whether this antibody-antigen association prevents or allows binding to the antibody on the sensor. The magnitude of observed binding (response) was compared to binding of antigen alone under the same conditions. If the overall response was greater than 120% of antigen binding alone, then the antibodies can pair with each other. If response was less than 80% of response of antigen binding alone, then the antibodies block each other. The protocol was as follows: preincubate the panel of antibodies with antigen (1 hr). Equilibrate the sensor (30 seconds (s))-->Load lead Ab on the sensor (700s)--->Quench (480s)--->Read baseline (480s)-->measure preincubated Ab+Ag association with loaded sensor (600s).

[6] = target: T5, purified recombinant human α5β1 integrin heterodimer, 6×His tagged (rh-α5β1); Acro Biosystems, cat. no. … (human, UniProt P08648 42-995; P05556 21-728); assay: BLI (Octet), supernatant mAb on anti-mouse IgG Fc sensor, 20 nM rh-α5β1
T5 construct: bought recombinant heterodimer; also called rh-α5β1-6×His tagged protein; His-tagged-α5β1
Text: Anti-Mouse IgG Fc biosensors were used to load each clone supernatant. Assay steps were as follows: Sensor Check (30s)-->Load Ab (700s)-->Quench (480s)-->Baseline(480s)-->Ab Assoc. (600s)-->Dissoc. (600s).

[7] = target: T6, recombinant human α5β1 integrin (rh-α5β1; R&D Systems, cat. no. 3230-A5) (human, UniProt P08648 42-995; P05556 21-728); assay: ELISA, coated rh-α5β1, supernatant 1:10
T6 construct: bought recombinant heterodimer
Description: as §1

rh-α5β1, sequence (P08648 42-894 limits assumed): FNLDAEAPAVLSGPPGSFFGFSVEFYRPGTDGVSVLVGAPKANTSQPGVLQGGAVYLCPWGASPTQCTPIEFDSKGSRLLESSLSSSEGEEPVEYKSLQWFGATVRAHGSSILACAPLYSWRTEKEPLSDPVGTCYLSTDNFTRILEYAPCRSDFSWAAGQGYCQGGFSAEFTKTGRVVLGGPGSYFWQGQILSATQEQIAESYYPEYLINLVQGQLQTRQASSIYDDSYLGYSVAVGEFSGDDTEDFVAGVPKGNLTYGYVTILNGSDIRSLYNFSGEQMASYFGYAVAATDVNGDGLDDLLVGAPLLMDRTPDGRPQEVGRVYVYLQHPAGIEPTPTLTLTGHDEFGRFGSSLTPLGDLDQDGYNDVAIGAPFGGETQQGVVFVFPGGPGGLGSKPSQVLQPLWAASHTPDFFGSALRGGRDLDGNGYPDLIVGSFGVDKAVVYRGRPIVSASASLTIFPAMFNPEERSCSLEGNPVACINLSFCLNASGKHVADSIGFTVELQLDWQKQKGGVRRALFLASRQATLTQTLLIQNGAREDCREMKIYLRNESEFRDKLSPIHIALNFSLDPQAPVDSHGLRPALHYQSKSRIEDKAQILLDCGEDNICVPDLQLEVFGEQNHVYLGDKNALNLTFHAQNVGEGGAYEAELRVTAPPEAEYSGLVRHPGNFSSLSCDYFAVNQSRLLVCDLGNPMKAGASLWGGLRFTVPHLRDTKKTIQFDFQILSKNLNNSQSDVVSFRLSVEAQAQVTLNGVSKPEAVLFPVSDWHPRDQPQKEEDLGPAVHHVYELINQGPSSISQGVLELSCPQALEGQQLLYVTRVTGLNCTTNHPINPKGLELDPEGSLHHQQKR
rh-α5β1, sequence (P08648 895-995 limits assumed): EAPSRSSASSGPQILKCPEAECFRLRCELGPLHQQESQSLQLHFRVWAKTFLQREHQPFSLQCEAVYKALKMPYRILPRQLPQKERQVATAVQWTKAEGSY
rh-α5β1, sequence (P05556 21-728 limits assumed): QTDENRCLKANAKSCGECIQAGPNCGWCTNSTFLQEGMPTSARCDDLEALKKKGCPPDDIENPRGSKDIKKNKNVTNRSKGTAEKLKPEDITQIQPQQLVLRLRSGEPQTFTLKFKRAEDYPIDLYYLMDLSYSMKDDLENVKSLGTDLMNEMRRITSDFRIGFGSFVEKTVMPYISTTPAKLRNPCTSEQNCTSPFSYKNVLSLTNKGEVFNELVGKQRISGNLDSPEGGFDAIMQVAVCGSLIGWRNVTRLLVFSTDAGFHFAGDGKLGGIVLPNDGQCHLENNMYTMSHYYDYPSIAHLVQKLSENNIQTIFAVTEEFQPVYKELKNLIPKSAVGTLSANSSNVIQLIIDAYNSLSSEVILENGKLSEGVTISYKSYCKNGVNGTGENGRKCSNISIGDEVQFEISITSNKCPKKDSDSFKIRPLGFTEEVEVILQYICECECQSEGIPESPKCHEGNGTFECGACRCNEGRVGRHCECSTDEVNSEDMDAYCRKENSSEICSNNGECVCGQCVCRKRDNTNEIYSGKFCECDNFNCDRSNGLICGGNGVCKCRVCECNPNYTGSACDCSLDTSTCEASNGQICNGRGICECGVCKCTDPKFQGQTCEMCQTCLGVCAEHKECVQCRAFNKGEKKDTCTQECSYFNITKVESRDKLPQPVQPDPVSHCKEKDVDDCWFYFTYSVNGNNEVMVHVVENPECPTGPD
T3 sequence (P13612 34-977 limits assumed, form in doubt, chain 1 of 2): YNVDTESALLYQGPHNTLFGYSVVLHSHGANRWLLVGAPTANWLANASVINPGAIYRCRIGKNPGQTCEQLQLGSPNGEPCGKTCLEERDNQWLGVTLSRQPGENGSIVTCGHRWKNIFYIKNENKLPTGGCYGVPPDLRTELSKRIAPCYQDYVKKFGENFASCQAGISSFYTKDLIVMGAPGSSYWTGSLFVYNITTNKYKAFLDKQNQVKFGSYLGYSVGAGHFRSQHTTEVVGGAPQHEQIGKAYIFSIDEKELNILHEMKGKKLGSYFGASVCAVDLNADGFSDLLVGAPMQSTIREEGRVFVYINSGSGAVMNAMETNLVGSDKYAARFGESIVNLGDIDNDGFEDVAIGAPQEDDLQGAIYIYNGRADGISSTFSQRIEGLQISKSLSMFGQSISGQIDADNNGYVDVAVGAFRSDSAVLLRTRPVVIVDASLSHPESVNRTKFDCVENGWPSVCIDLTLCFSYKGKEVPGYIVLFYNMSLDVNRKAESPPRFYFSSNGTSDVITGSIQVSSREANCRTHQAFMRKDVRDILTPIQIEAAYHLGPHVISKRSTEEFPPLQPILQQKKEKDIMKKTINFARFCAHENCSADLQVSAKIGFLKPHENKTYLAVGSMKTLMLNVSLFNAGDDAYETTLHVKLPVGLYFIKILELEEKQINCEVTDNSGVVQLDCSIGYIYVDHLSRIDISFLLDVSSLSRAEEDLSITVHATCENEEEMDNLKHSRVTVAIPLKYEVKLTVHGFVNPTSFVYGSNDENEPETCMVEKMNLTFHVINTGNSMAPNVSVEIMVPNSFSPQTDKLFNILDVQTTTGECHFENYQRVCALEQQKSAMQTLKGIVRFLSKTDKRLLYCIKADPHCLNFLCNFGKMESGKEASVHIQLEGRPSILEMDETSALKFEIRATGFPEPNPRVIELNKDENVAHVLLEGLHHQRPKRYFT
T3 sequence (P05556 21-728 limits assumed, form in doubt, chain 2 of 2): as the sequence (P05556 21-728 limits assumed) above
T6 sequence (P08648 42-995 limits assumed, form in doubt, chain 1 of 2): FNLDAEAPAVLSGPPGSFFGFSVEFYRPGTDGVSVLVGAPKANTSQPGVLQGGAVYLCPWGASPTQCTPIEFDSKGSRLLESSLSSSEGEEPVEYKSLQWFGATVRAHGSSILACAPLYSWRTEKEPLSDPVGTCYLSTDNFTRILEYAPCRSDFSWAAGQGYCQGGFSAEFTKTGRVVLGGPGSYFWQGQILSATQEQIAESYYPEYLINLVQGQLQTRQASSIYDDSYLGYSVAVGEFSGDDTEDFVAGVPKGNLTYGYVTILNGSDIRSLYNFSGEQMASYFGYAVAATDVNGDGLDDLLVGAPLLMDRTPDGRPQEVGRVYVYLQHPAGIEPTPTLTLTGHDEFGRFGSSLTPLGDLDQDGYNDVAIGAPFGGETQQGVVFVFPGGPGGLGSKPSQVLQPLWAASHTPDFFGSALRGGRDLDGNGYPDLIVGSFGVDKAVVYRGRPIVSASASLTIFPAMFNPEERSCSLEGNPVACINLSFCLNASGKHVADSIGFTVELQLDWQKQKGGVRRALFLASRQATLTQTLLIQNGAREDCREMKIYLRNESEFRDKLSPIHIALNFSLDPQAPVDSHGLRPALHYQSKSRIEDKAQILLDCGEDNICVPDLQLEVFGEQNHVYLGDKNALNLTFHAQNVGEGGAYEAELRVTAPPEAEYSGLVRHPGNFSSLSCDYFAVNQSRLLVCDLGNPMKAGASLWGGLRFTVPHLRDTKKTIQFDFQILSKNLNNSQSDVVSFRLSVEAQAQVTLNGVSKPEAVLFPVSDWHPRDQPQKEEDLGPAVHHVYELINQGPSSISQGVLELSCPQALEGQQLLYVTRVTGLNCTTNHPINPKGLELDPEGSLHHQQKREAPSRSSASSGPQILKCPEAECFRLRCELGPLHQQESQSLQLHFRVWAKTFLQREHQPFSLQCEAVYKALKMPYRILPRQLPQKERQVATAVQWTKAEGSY
T6 sequence (P05556 21-728 limits assumed, form in doubt, chain 2 of 2): as the sequence (P05556 21-728 limits assumed) above
T5 sequence (P08648 42-995 limits assumed, form in doubt, chain 1 of 2): as the sequence (P08648 42-995 limits assumed, form in doubt, chain 1 of 2) above
T5 sequence (P05556 21-728 limits assumed, form in doubt, chain 2 of 2): as the sequence (P05556 21-728 limits assumed) above
T1 sequence (P08648 42-995 limits assumed, form in doubt, chain 1 of 2): as the sequence (P08648 42-995 limits assumed, form in doubt, chain 1 of 2) above
T1 sequence (P05556 21-728 limits assumed, form in doubt, chain 2 of 2): as the sequence (P05556 21-728 limits assumed) above
T4 sequence (P08648 42-894 limits assumed): as the sequence (P08648 42-894 limits assumed) above
T4 sequence (P08648 895-995 limits assumed): as the sequence (P08648 895-995 limits assumed) above
T4 sequence (P05556 21-728 limits assumed): as the sequence (P05556 21-728 limits assumed) above

| Absorbance 450 nm [1] [A450] | Absorbance 450 nm [2] [A450] | Absorbance 450 nm [3] [A450] | Kd [6] [nM] | koff [6] [s⁻¹] | kon [6] [M⁻¹ s⁻¹] | Absorbance 450 nm [7] | Molecule | also measured |
| --- | --- | --- | --- | --- | --- | --- | --- | --- |
| 1.25 | 0.0799 | 0.081 |  |  |  |  | A-15H11 (antibody, V domains shown, mouse hybridoma supernatant) VH: QVQLQQPGAELVKPGASVKLSCKASGYTFTIYWINWVKQRPGQGLEWIGKIYPGSISTDYNEKFKSKATLTVDTSSSTAYMQLSSLTSDDSAVYYCAITGTGGLAYWGQGTLVTVSA VL: ENVLTQSPAIMSASLGEKVTMTCRASSSVNYMYWYQQKSDASPKLWIYFTSSLAPGVPGRFSGSGSGNSYSLTISTMEGEDAATYYCQQFTTSPFTFGSGTKLEIK |  |
|  |  |  |  |  |  |  | A2-7F01: anti-α5β1 antibody, VH SEQ ID NO:91, VL SEQ ID NO:92 (antibody, V domains shown, A2-7F01 VH Sequence; A2-7F01 VL Sequence) VH: QVQLQQPGAELVKPGASVKLSCKASGYTFTIYWINWVKQRPGQGLEWIGNIYPGSSSTNYNEKFKTKATLTVDTSSSTAYMQLSSLTSDDSAVYYCAITGTGGFAYWGQGTLVTVSA VL: ENVLTQSPAIMSASLGEKVTMSCRASSSVNYMYWYQQKSDASPKLWIYFTSSLAPGVPTRFSGSGSGNSFSLTISSMEGEDAATYYCQQLTGSPFTFGSGTRLEIK | Selected Human α5 Specific [4]: Yes; binding of rh-α5β1 complexed with antibody to A-15B08 on the sensor ([5]; antibody preincubated with rh-α5β1, A-15B08 immobilized on sensor): able to bind; binding of rh-α5β1 complexed with antibody to C-14D12 on the sensor ([5]; antibody preincubated with rh-α5β1, C-14D12 immobilized on sensor): able to bind; Response (nm) ([5]; immobilized mAb A2-7A05): −0.17 nm; % Response ([5]; immobilized mAb A2-7A05): −472.70%; Response (nm) ([5]; immobilized mAb A-15B08): 0.29 nm; % Response ([5]; immobilized mAb A-15B08): 142.59%; Response (nm) ([5]; immobilized mAb C-14D12): 0.30 nm; % Response ([5]; immobilized mAb C-14D12): 133.09%; epitope group [5]: one group |
|  |  |  | 3.5 | 0.000911 | 260000 | 2.01 | A2-6C10 (antibody, V domains shown, mouse hybridoma antibody) VH: QVQLKESGPGLVAPSQSLSITCTISGFSLTTYGVHWVRQPPGKGLEWLVVIWSDGSTTYNSALKSRLNITKDNSKSQVFLKMNSLQTDDTAMYYCVRHGGLLRRDAMDYWGQGTSVTVSS VL: QIVLTQSPAIMSASLGERVTMTCTASSSVSSNSFHWYQQKPGSSPKLWLYSTSNLASGVPARFSGSGSGTSYSLTISSMEAEDAATYYCHQYLRSPPTFGGGTKLEIK |  |
|  |  |  |  |  |  |  | A2-5D10: anti-α5β1 antibody, VH SEQ ID NO:51, VL SEQ ID NO:52 (antibody, V domains shown, A2-5D10 VH Sequence; A2-5D10 VL Sequence) VH: QVQLKESGPGLVAPSQSLSITCTISGFSLTSYGVHWVRQPPGKGLEWLVVIWSDGSTTYNSTLKSRLSISKDNSKSQVFLKMNSLQTDDTAMYYCARHYDYDGDWFAYWGQGTLVTVSA VL: QILLTQSPAIMSASLGERVTMTCTASSSVSSRCLHWYQQKPGSSPKLWIYSTSNLASGVPARFRGSGSGTSYSLTISSMEAEDAATYYCHQYYRSPPTFGGGTKLEIK | Selected Human α5 Specific [4]: Yes; binding of rh-α5β1 complexed with antibody to A2-7A05 on the sensor ([5]; antibody preincubated with rh-α5β1, A2-7A05 immobilized on sensor): able to bind; Response (nm) ([5]; immobilized mAb A2-7A05): 0.17 nm; % Response ([5]; immobilized mAb A2-7A05): 448.38%; Response (nm) ([5]; immobilized mAb A-15B08): 0.22 nm; % Response ([5]; immobilized mAb A-15B08): 106.82%; Response (nm) ([5]; immobilized mAb C-14D12): 0.24 nm; % Response ([5]; immobilized mAb C-14D12): 106.12%; epitope group [5]: second group |
| 0.702 | 0.17 | 0.171 |  |  |  |  | C-14D12 (antibody, V domains shown, mouse hybridoma supernatant in this assay) VH: QVQLKESGPDLVAPSQSLSITCTVSGFSLTDYGVHWVRQPPGKGLEWLVVIWSDGSTTYNSALKSRLSITKDTSKRQVFLKMNSLQTDDTAMYYCARHAPSFIRYGSRYDALDYWGQGTSVTVSS VL: QIVLTQSPAIMSASLGERVTLTCTASSSVTSSFLHWYQQKPGSSPKLWIYSTSNLASGVPARFSGSGSGTSYSLTISSMEAEDAATYYCHQYHRSPPTFGGGTKLEIK |  |
|  |  |  | 5.02 | 0.00139 | 277000 | 1.91 | A2-9A11 (antibody, V domains shown, mouse hybridoma antibody) VH: QVQLKESGPGLVAPSQSLSITCTISGFSLTTYGVHWVRQPPGKGLEWLVVIWSDGSTTYNSALKSRLNITKDNSKSQVFLKMNSLQTDDTAMYYCVRHGGLLRRDAMDYWGQGTSVTVSS VL: QIVLTQSPAIMSASLGERVTMTCTASSSVSSNSFHWYQQKPGSSPKLWLYSTSNLASGVPARFSGSGSGTSYSLTISSMEAEDAATYYCHQYLRSPPTFGGGTKLEIK |  |
| 0.805 | 0.0872 | 0.165 |  |  |  |  | C-8G11 (antibody, V domains shown, mouse hybridoma supernatant) VH: QVQLKESGPDLVAPSQSLSITCTVSGFSLTDYGVHWVRQPPGKGLEWLVVIWSDGSTTYNSALKSRLSITKDTSKRQVFLKMNSLQTDDTAMYYCARHAPSFIRYGSRYDALDYWGQGTSVTVSS VL: QIVLTQSPAIMSASLGERVTLTCTASSSVTSSFLHWYQQKPGSSPKLWIYSTSNLASGVPARFSGSGSGTSYSLTISSMEAEDAATYYCHQYHRSPPTFGGGTKLEIK |  |
|  |  |  | 4.81 | 0.00139 | 289000 | 1.45 | A2-8H11 (antibody, V domains shown, mouse hybridoma antibody) VH: QVQLKESGPGLVAPSQSLSITCTISGFSLTTYGVHWVRQPPGKGLEWLVVIWSDGSTTYNSALKSRLNITKDNSKSQVFLKMNSLQTDDTAMYYCVRHGGLLRRDAMDYWGQGTSVTVSS VL: QIVLTQSPAIMSASLGERVTMTCTASSSVSSNSFHWYQQKPGSSPKLWLYSTSNLASGVPARFSGSGSGTSYSLTISSMEAEDAATYYCHQYLRSPPTFGGGTKLEIK |  |
